Test results taken from the DeepSol protein solubility set.

Experiment: soluble on expression in E. coli; label from the status in PepcDB or PDB records

| Sequence | soluble on expression in E. coli |
| --- | --- |
| MGSSHHHHHHSSGLVPRGSHMKKRQLGTSDLHVSELGFGCMSLGTDETKARRIMDEVLELGINYLDTADLYNQGLNEQFVGKALKGRRQDIILATKVGNRFEQGKEGWWWDPSKAYIKEAVKDSLRRLQTDYIDLYQLHGGTIDDPIDETIEAFEELKQEGVIRYYGISSIRPNVIKEYLKRSNIVSIMMQYSILDRRPEEWFPLIQEHGVSVVVRGPVARGLLSRRPLPEGEGYLNYRYDELKLLRESLPTDRPLHELALQYCLAHDVVATVAAGASSIDQVKANVQAVEATPLTAEERQHIQKLAKAAVYEQHRE | soluble |
| MGSSHHHHHHSSGLVPRGSHMLDIMSDDGDITAVSSGNRDIAQVVTENNKNYLVLYASQTGTAEGFAKAFSKELVAKFNLNVMCADVENYDFESLNDVPVIVSIFISTYGEGDFPDGAVNFEDFICNAEAGALSNLRYNMFGLGNSTYEFFNGAAKKAEKHLSAAGAIRLGKLGEADDGAGTTDEDYMAWKDSILEVLKDELHLDEQEAKFTSQFQYTVLNEITDSMSLGEPSAHYLPSHQLNRNADGIQLGPFDLSQPYIAPIVKSRELFSSNDRNCIHSEFDLSGSNIKYSTGDHLAVWPSNPLEKVEQFLSIFNLDPETIFDLKPLDPTVKVPFPTPTTIGAAIKHYLEITGPVSRQLFSSLIQFAPNADVKEKLTLLSKDKDQFAVEITSKYFNIADALKYLSDGAKWDTVPMQFLVESVPQMTPRYYSISSSSLSEKQTVHVTSIVENFPNPELPDAPPVVGVTTNLLRNIQLAQNNVNIAETNLPVHYDLNGPRKLFANYKLPVHVRRSNFRLPSNPSTPVIMIGPGTGVAPFRGFIRERVAFLESQKKGGNNVSLGKHILFYGSRNTDDFLYQDEWPEYAKKLDGSFEMVVAHSRLPNTKKVYVQDKLKDYEDQVFEMINNGAFIYVCGDAKGMAKGVSTALVGILSRGKSITTDEATELIKMLKTSGRYQEDVW | soluble |
| MGSSHHHHHHSSGLVPRGSHMSQSTYSLEQLADFLKVEFQGNGATLLSGVEEIEEAKTAHITFLDNEKYAKHLKSSEAGAIIISRTQFQKYRDLNKNFLITSESPSLVFQKCLELFITPVDSGFPGIHPTAVIHPTAIIEDHVCIEPYAVVCQHAHVGSACHIGSGSVIGAYSTVGEHSYIHPRVVIRERVSIGKRVIIQPGAVIGSCGFGYVTSAFGQHKHLKHLGKVIIEDDVEIGANTTIDRGRFKHSVVREGSKIDNLVQIAHQVEVGQHSMIVAQAGIAGSTKIGNHVIIGGQAGITGHICIADHVIMMAQTGVTKSITSPGIYGGAPARPYQEIHRQVAKVRNLPRLEERIAALEKLVQKLEALSEQH | soluble |
| MGSSHHHHHHSSGLVPRGSHMSRVTVLQSQLPAYNRLKTPYESELIATVKKLTTPGKGLLAADESIGSCTKRFQPIGLSNTEEHRRQYRALMLEAEGFEQYISGVILHDETVGQKASNGQTFPEYLTARGVVPGIKTDMGLCPLLEGAEGEQMTEGLDGYVKRASAYYKKGCRFCKWRNVYKIQNGTVSESAVRFNAETLARYAILSQMSGLVPIVEPEVMIDGKHDIDTCQRVSEHVWREVVAALQRHGVIWEGCLLKPNMVVPGAESGKTAAPEQVAHYTVMTLARTMPAMLPGVMFLSGGLSEVQASEYLNAINNSPLPRPYFLSFSYARALQSSALKAWGGKESGLAAGRRAFLHRARMNSMAQLGKYKRSDDDASSSSLYVKGNTY | soluble |
| MGSSHHHHHHSSGLVPRGSHMTAEEMKATESGAQSAPLPMEGVDISPKQDEGVLKVIKREGTGTEMPMIGDRVFVHYTGWLLDGTKFDSSLDRKDKFSFDLGKGEVIKAWDIAIATMKVGEVCHITCKPEYAYGSAGSPPKIPPNATLVFEVELFEFKGEDLTEEEDGGIIRRIQTRGEGYAKPNEGAIVEVALEGYYKDKLFDQRELRFEIGEGENLDLPYGLERAIQRMEKGEHSIVYLKPSYAFGSVGKEKFQIPPNAELKYELHLKSFEKAKESWE | soluble |
| MGSSHHHHHHSSGLVPRGSMEFVKDLKTPEDYINNELKYGAHNYDPIPVVLKRAKGVFVYDVNDKRYYDFLSAYSSVNQGHCHPNILNAMINQAKNLTICSRAFFSVPLGICERYLTNLLGYDKVLMMNTGAEANETAYKLCRKWGYEVKKIPENMAKIVVCKNNFSGRTLGCISASTTKKCTSNFGPFAPQFSKVPYDDLEALEEELKDPNVCAFIVEPIQGEAGVIVPSDNYLQGVYDICKKYNVLFVADEVQTGLGRTGKLLCVHHYNVKPDVILLGKALSGGHYPISAVLANDDIMLVIKPGEHGSTYGGNPLAASICVEALNVLINEKLCENAEKLGGPFLENLKRELKDSKIVRDVRGKGLLCAIEFKNELVNVLDICLKLKENGLITRDVHDKTIRLTPPLCITKEQLDECTEIIVKTVKFFDERF | soluble |
| MGSSHHHHHHSSGRENLYFQGHMSKFVITCIAHGENLPKETIDQIAKEITESSAKDVSINGTKKLSARATDIFIEVAGSIVQKDLKNKLTNVIDSHNDVDVIVSVDNEYRQAKKLFVFDMDSTLIYQEVIELIAAYAGVEEQVHEITERAMNNELDFKESLRERVKLLQGLQVDTLYDEIKQKLEVTKGVPELCKFLHKKNCKLAVLSGGFIQFAGFIKDQLGLDFCKANLLEVDTDGKLTGKTLGPIVDGQCKSETLLQLCNDYNVPVEASCMVGDGGNDLPAMATAGFGIAWNAKPKVQKAAPCKLNTKSMTDILYILGYTDDEIYNRQ | soluble |
| MGSSHHHHHHSSGRENLYFQGMHYQPKQDLLNDRIILVTGASDGIGREAAMTYARYGATVILLGRNEEKLRQVASHINEETGRQPQWFILDLLTCTSENCQQLAQRIVVNYPRLDGVLHNAGLLGDVCPMSEQNPQVWQDVMQINVNATFMLTQALLPLLLKSDAGSLVFTSSSVGRQGRANWGAYAASKFATEGMMQVLADEYQQRLRVNCINPGGTRTAMRASAFPTEDPQKLKTPADIMPLYLWLMGDDSRRKTGMTFDAQPGRKPGISQ | soluble |
| MGSSHHHHHHSSGRENLYFQGMPSLTPRCIIVRAGQTEWSKSGQYTGLTDLPLTPYGEGQMLRTGESVFRNNQFLNPDNITYIFTSPRLRARQTVDLVLKPLSDEQRAKIRVVVDDDLREWEYGDYEGMLTREIIELRKSRGLDKERPWNIWRDGCENGETTQQIGLRLSRAIARIQNLHRKHQSEGRASDIMVFAHGHALRYFAAIWFGLGVQKKCETIEEIQNVKSYDDDTVPYVKLESYRHLVDNPCFLLDAGGIGVLSYAHHNIDEPALELAGPFVSPPEEESQHGDV | soluble |
| MGSSTGFHHADHVNYSSNLNKEEILEQLLLSYEGLSDGQVNWVCNLSNASSLIWHAYKSLAVDINWAGFYVTQASEENTLILGPFQGKVACQMIQFGKGVCGTAASTKETQIVPDVNKYPGHIACDGETKSEIVVPIISNDGKTLGVIDIDCLDYEGFDHVDKEFLEKLAKLINKSCVFK | soluble |
| MGSYLSVPAYFTSRDLFRCSECQDSLTNWYYEKDGKLYCPKDYWGKFGEFCHGCSLLMTGPFMVAGEFKYHPECFACMSCKVIIEDGDAYALVQHATLYCGKCHNEVVLAPMFERLSTESVQEQLPYSVTLISMPATTEGRRGFSVSVESACSNYATTVQVKEVNRMHISPNNRNAIHPGDRILEINGTPVRTLRVEEVEDAISQTSQTLQLLIEHDPVSQRLDQLRLEARLAPHMQNAGHPHALSTLDTKENLEGTLRRRSLRRSNSISKSPGPSSPKEPLLFSRDISRSESLRCSSSYSQQIFRPCDLIHGEVLGKGFFGQAIKVTHKATGKVMVMKELIRCDEETQKTFLTEVKVMRSLDHPNVLKFIGVLYKDKKLNLLTEYIEGGTLKDFLRSMDPFPWQQKVRFAKGIASGMAYLHSMCIIHRDLNSHNCLIKLDKTVVVADFGLSRLIVEERKRAPMEKATTKKRTLRKNDRKKRYTVVGNPYWMAPEMLNGKSYDETVDIFSFGIVLCEIIGQVYADPDCLPRTLDFGLNVKLFWEKFVPTDCPPAFFPLAAICCRLEPESRAPPGAAGEGPGCADDEGPVRRQGKVTIKYDPKELRKHLNLEEWILEQLTRLYDCQEEEISELEIDVDELLDMESDDAWASRVKELLVDCYKPTEAFISGLLDKIRAMQKLSTPQKK | soluble |
| MGTGQRKDPSQQRSQETVARILSATGQVLRAKGYTGCSTNAIAEAAGISKGSVYQYFANKDEIIEVLIDKIMEETTATFGTQLEQAVAKGTFLKDAALQSQLLAVLDRYCDILGSLLNDAPHLALTAHRSVRIEERCRDLLRTYVTLNPSAIGPGVDLEALLLVLTVSYREVSLEYLRRDLRDRRNELATVLYDMTMGGLAGRVTRGV | not soluble |
| MGTICDAASPTFMLQHWVRDRRRGSRISLEHAIKRQCHDTARLYGLDDRGVIAPGYLADINVIDFDRVRLLKPWLAFDLPAGGKRLLQKAEGYDYTIKGGKVTFRNGEWTGATPGNLIRGPQRADLMEAAELEHHHHHH | not soluble |
| MGTRSPHIVLRNATYLNSYIREWMQANIWIYDDRIIYVGEKLPEQLHECEVIDCDGKYVVPSYIEPHAHPYQLYNPETLANHAMQFGTTTFINDNLEHHHHHH | soluble |
| MGTVLFEDKASETKGSDIYHRIIPDAESYIKEQARTVLATLYNSPEDSITPVNKIHYTLEDIEGISAKGGGNGDVTIFYSTRHIEKSFAENDTAKLFFETRGVLLHELTHAYQLEPQGIGSYGTNRVFWAFIEGMADAVRVANGGFDGPNARPKGGNYMDGYRTAGYFFVWLRDNKDPEFLRKFNRSTLEVIPWSFDGAIKHILGTEYSIDELWHEYQVAVGDIQVLEHHHHHH | not soluble |
| MGTVMIRNVYKGVHNMKLENGWETSFLEVVQNSEFKKEALLSQLLCQDSEEVEELVDDYGYEELVEREHDDELAEILGEELFSEMERQVFLSSNPEEKLISFVNGLGFHVLDWIVLLETEFGIDSANFTSDAVKVLEKRFRQFPYIEDKTIFDMTFGESMDVLESVTGLQLKEKMNV | not soluble |
| MGVSPAAPASGIRRPCYLVLSSHDFRTPRRANIHFITDQLALRGTTRFFSLRYSRLSRMKGDMRLPLDDTANTVVSHNGVDCYLWRTTVHPFNTRRSWLRPVEDAMFRWYAAHPPKQLLDWMRESDVIVFESGIAVAFIELAKRVNPAAKLVYRASDGLSTINVASYIEREFDRVAPTLDVIALVSPAMAAEVVSRDNVFHVGHGVDHNLDQLGDPSPYAEGIHAVAVGSMLFDPEFFVVASKAFPQVTFHVIGSGMGRHPGYGDNVIVYGEMKHAQTIGYIKHARFGIAPYASEQVPVYLADSSMKLLQYDFFGLPAVCPNAVVGPYKSRFGYTPGNADSVIAAITQALEAPRVRYRQCLNWSDTTDRVLDPRAYPETRLYPHPPTAAPQLSSEAALSHHHHHHH | soluble |
| MGYHTFDAGRADKLEDAQERYRSLSAEELCWALSASSDETVADLGSGTGFYTDDVAPAVDHVYAVDIQEAMHDYYRKKGVPDNVDLVTSAVDDLPFDTSSLDAAFSTMTYHEFASDGALREVARVLKPGGTFAIADWAASGSGRNGPPVDERFSAAEATDALRQHGFTVEFEAVRPETFLLVVSADLEHHHHHH | soluble |
| MGYIQSGKSKVEIVNVSETVTSAANVSQYPVESGAPITDNMMYTGGPVTISGWILAKNGNAAEQAYNTLVAWQKDVRWIVYRGRSYFKNAVIQDISKGYDTVENGFTITITLQPIRVAKTIWEKIPQPPVAKQPSKPSNAVYVTVQPGNTYWGWWQQYGTSIQQLRDWNKWPDRFIPIGARARVK | not soluble |
| MGYRIEFDPRAEKELEKLDREVARRILRFLRERVATLEDPRSLGEPLRGPELGRFWKYRVGDYRLICHIQDREATVLVLRVGHARDVYR | soluble |
